In EP4663762A2 (HongKong Bioheng Biotech Limited, dated 2025):

B1: immunosuppressive molecule of plasmid CAR18.2-PA (anti-PD1 scFv, linker, anti-NKG2A scFv, IgG4 hinge, CD28 transmembrane region, CD28 co-stimulatory domain), … (other)
chain: QVQLVQSGVEVKKPGASVKVSCKASGYTFTNYYMYWVRQAPGQGLEWMGGINPSNGGTNFNEKFKNRVTLTTDSSTTTAYMELKSLQFDDTAVYYCARRDYRFDMGFDYWGQGTTVTVSSGGGGSGGGGSGGGGSEIVLTQSPATLSLSPGERATLSCRASKGVSTSGYSYLHWYQQKPGQAPRLLIYLASYLESGVPARFSGSGSGTDFTLTISSLEPEDFAVYYCQHSRDLPLTFGGGTKVEIKGGGGSGGGGSGGGGSEIVLTQSPATLSLSPGERATMTCSASSSVSSYIYWYQQKPGQAPRLLIYLTSNLASGIPARFSGSGSGTDFTLTISSLEPEDFATYYCQQWSGNPYTFGQGTKVEIKGSTSGSGKPGSGEGSTKGEVQLVESGGGLVKPGGSLRLSCAASGFTFSSYAMSWVRQAPGKGLEWVAEISSGGSYTYYPDSVKGRFTISRDNAKNSLYLQMNSLRAEDTAVYYCTRHGDYPRFFDVWGQGTLVTVSSESKYGPPCPPCPFWVLVVVGGVLACYSLLVTVAFIIFWVRSKRSRLLHSDYMNMTPRRPGPTRKHYQPYAPPRDFAAYRS
B2: immunosuppressive molecule of plasmid CAR19-C4TT (anti-CTLA4 scFv, linker, anti-TIGIT scFv, IgG4 hinge, CD28 transmembrane region, CD28 co-stimulatory domain), … (other)
chain: QVQLVESGGGVVQPGRSLRLSCAASGFTFSSYGMHWVRQAPGKGLEWVAVIWYDGSNKYYADSVKGRFTISRDNSKNTLYLQMNSLRAEDTAVFYCARAPNYIGAFDVWGQGTMVTVSSGGGGSGGGGSGGGGSDIQMTQSPSSLSASVGDRVTITCRASQGISSWLAWYQQKPEKAPKSLIYAASSLQSGVPSRFSGSGSGTDFTLTISSLQPEDFATYYCQQYNSYPPTFGQGTKVEIKGGGGSGGGGSGGGGSEVQLQQSGPGLVKPSQTLSLTCAISGDSVSSNSAAWNWIRQSPSRGLEWLGKTYYRFKWYSDYAVSVKGRITINPDTSKNQFSLQLNSVTPEDTAVFYCTRESTTYDLLAGPFDYWGQGTLVTVSSGGGGSGGGGSGGGGSDIVMTQSPDSLAVSLGERATINCKSSQTVLYSSNNKKYLAWYQQKPGQPPNLLIYWASTRESGVPDRFSGSGSGTDFTLTISSLQAEDVAVYYCQQYYSTPFTFGPGTKVEIKRESKYGPPCPPCPFWVLVVVGGVLACYSLLVTVAFIIFWVRSKRSRLLHSDYMNMTPRRPGPTRKHYQPYAPPRDFAAYRS
notes: Membrane-anchored on transduced T cells that also express the anti-CD19 CAR
B3: immunosuppressive molecule of plasmid CAR19-AC4 (anti-NKG2A scFv, linker, anti-CTLA4 scFv, IgG4 hinge, CD28 transmembrane region, CD28 co-stimulatory domain), … (other)
chain: EIVLTQSPATLSLSPGERATMTCSASSSVSSYIYWYQQKPGQAPRLLIYLTSNLASGIPARFSGSGSGTDFTLTISSLEPEDFATYYCQQWSGNPYTFGQGTKVEIKGSTSGSGKPGSGEGSTKGEVQLVESGGGLVKPGGSLRLSCAASGFTFSSYAMSWVRQAPGKGLEWVAEISSGGSYTYYPDSVKGRFTISRDNAKNSLYLQMNSLRAEDTAVYYCTRHGDYPRFFDVWGQGTLVTVSSGGGGSGGGGSGGGGSQVQLVESGGGVVQPGRSLRLSCAASGFTFSSYGMHWVRQAPGKGLEWVAVIWYDGSNKYYADSVKGRFTISRDNSKNTLYLQMNSLRAEDTAVFYCARAPNYIGAFDVWGQGTMVTVSSGGGGSGGGGSGGGGSDIQMTQSPSSLSASVGDRVTITCRASQGISSWLAWYQQKPEKAPKSLIYAASSLQSGVPSRFSGSGSGTDFTLTISSLQPEDFATYYCQQYNSYPPTFGQGTKVEIKESKYGPPCPPCPFWVLVVVGGVLACYSLLVTVAFIIFWVRSKRSRLLHSDYMNMTPRRPGPTRKHYQPYAPPRDFAAYRS
notes: as for B2

Key:
Assay in all cases: flow cytometry, soluble tagged antigen staining T cells that carry the construct
[1] = target: T1, Human PD-1 / PDCD1 Protein, His Tag (ACRO) (human, UniProt Q15116 25-167)
T1 construct: Bought reagent (ACRO); no catalogue number, no construct limits; also called CD279; not shown: His tag
T1 sequence (Q15116 25-167 limits assumed): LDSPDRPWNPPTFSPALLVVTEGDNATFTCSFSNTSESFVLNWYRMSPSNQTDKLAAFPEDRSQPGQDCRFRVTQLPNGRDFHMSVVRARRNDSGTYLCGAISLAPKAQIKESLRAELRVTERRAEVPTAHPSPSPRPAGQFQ

[2] = target: T2, Human NKG2A&CD94 Protein, Fc Tag (ACRO) (human, UniProt P26715 94-233; Q13241 32-179, limits assumed)
T2 construct: Bought heterodimer reagent (ACRO) with Fc tag
T2 sequence (P26715 94-233 limits assumed, chain 1 of 2): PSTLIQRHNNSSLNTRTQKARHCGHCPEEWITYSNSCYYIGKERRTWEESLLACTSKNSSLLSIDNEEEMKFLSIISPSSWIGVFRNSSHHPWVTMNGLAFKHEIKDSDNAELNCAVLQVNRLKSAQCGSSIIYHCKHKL
T2 sequence (Q13241 32-179 limits assumed, chain 2 of 2): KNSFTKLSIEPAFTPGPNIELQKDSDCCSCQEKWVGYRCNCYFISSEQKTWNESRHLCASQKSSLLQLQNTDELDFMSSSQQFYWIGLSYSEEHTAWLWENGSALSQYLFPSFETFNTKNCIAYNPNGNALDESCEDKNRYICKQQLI

[3] = target: T3, Human TIGIT Protein, Fc Tag (ACRO) (human, UniProt Q495A1 22-141)
T3 construct: Bought reagent (ACRO); no catalogue number, no construct limits; also called Human TIGIT Protein, Fc TagTIGIT; not shown: Fc tag
T3 sequence (looked up): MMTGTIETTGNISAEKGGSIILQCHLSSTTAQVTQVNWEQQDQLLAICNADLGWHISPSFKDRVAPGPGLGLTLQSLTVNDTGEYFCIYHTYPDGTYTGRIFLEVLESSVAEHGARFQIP

[4] = target: T4, Human CTLA-4 / CD152 Protein, Fc Tag (ACRO) (human, UniProt P16410 36-161, limits assumed)
T4 construct: Bought reagent (ACRO); no catalogue number, no construct limits; not shown: Fc tag
T4 sequence (looked up): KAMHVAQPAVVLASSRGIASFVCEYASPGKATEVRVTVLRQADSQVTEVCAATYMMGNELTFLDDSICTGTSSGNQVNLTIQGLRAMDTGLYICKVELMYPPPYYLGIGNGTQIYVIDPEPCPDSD

Row | Binder | binding result [1] | binding result [2] | binding result [3] | binding result [4]
1 | B1 | binds | binds | – | –
2 | B2 | – | – | binds | binds
3 | B3 | – | binds | – | binds
